{
  "source": "paper PMC5768738",
  "about": "“Structure of a MacAB-like efflux pump from Streptococcus pneumoniae” (Nature Communications, 2018)",
  "molecular_target": "the molecule itself",
  "assay": "crystal structure; Se-Met Spr0693_(59–324) T197M/I317M, hanging drop at 12 °C, sodium acetate pH 4.5; SAD, 3.0 Å; three molecules in the asymmetric unit",
  "data": [
    {"protein": "Spr0693_(59–324) T197M/I317M, selenomethionine-labelled (domain or fragment, Streptococcus pneumoniae R6, UniProt Q8DQF9 59-324, looked up, selenomethionine instead of methionine, Spr0693, Streptococcus pneumoniae R6, residues Ser59–Lys324 (without the TM and the membrane-proximal domain); Plasmid built on the full-length spr0693 plasmid (C-terminal tag) and purified on Ni-NTA; The structure was solved from a Se-Met crystal of the T197M/I317M double mutant; residues Pro142–Gly163 are not traced; also called truncated Spr0693 (Ser59–Lys324); TM&MP-truncated Spr0693; source: …) SVLLSGTVTAKNEQYVYFDASKGDLDEILVSVGDKVSEGQALVKYSSSEAQAAYDSASRAVARADRHINELNQARNEAASAPAPQLPAPVGGEDATVQSPTPVAGNSVASIDAQLGDARDARADAAAQLSKAQSQLDAMTVLSTLEGTVVEVNSNVSKSPTGASQVMVHIVSNENLQVKGELSEYNLANLSVGQEVSFTSKVYPDKKWTGKLSYISDYPKNNGEAASPAAGNNTGSKYPYTIDVTGEVGDLKQGFSVNMEVKSKTK", "values": [
      {"measurement": "stoichiometry N", "value": 6}
    ]}
  ]
}
